From patent US20130109846A1 (published 2013)

B1: 1h-36 (other)
VL: DIQMTQSPSSLSASVGDRVTITCRASRDIALDLLWYQQKPGKAPKLLIKGWSGLQSGVPSRFSGSGSGTDFTLTISSLQPEDFATYYCAQGWGRPVTFGQGTKVEIKR
B2: 1h-82 (other)
VL: DIQMTQSPSSLSASVGDRVTITCRASQDIGLNLLWYQQKPGKAPTLLIYWSSMLQSGVPSRFSGSGSGTDFTLTISSLQPEDFATYYCQQGRMRPFTFGQGTKVEIKR
B3: 1h-86 (other)
VL: DIQMTQSPSSLSASVGDRVTITCRASQDIGQSLVWYQQKPGKAPKLLIYWASMLQSGVPSRFSGSGSGTDFTLTISSLQPEDFATYYCQQVMRRPFTFGQGTKVEIKR
B4: 1h-90 (other)
VL: DIQMTQSPSSLSASVGDRVTITCRASQTIGHGLVWYQQKPGKAPKLLIYWSSHLQSGVPSRFSGSGSGTDFTLTISSLQPEDFATYYCQQTLRTPFTFGQGTKVEIKR
B5: 1h-108 (other)
VL: DIQMTQSPSSLSASVGDRVTITCRASQYIGTALNWYQQKPGKAPKLLIYRRSHLQSGVPSRFSGSGSGTDFTLTISSLQPEDFATYYCQQIALTPYTFGQGTKVEIKR
B6: 1h-84 (other)
VL: DIQMTQSPSSLSASVGDRVTITCRASQSIGKGLMWYQQKPGKAPKLLIYWASMLQSGVPSRFSGSGSGTDFTLTISSLQPEDFATYYCQQSLRTPFTFGQGTEVEIKR
B7: 1h-85 (other)
VL: DIQMTQSPSSLSASVGDRVTITCRASQPIGASLLWYQQKPGKAPRLLIYWGSLLQSGVPSRFSGSGSGTDFTLTISSLQPEDLATYYCQQSLRTPFTFGQGTKVEIKR
B8: 1h-80-2 (other)
VL: DIQMTQSPSSLSASVGDRVTITCRASQRIGSNLAWYQQKPGKAPKLLIYWASLLQSGVPSRFSGSGSETDFTLTISSLQPEDFATYYCQQTRSAPFAFGQGTKVEIKR
B9: 1h-80-7 (other)
VL: DIQMTQSPSSLSASVGDRVTITCRASQRIGSNLAWYQQKPGKAPKLLIYWASLLQSGVPSRFSGSGSGSDFTLTISSLQPEDFATYYCQETRSAPFTFGQGTKVEIKR
B10: 1h-83 (other)
VL: DIQMTQSPSSLSASVGDRVTITCRASQSIGHSLVWYQQKPGKAPKLLIYWASLLQSGVSSRFSGSGSGTDFTLTISSLQPEDFATYYCQQSRAAPFTFGQGTKVEIKR
B11: 1h-81 (other)
VL: DIQMTQSPSSLSASVGDRVTITCRASQEIDHGLAWYQQKPGKAPKLLIYWASRLQSGVPSRFSGSGSGTDFTLTISSLQPEDFATYYCQQVVAAPFTFGQGTKVEIKR
B12: 1h-79 (other)
VL: DIQMTQSPSSLSASVGDRVTITCRASQPIGHSLAWYQQKPGKAPKLLIYWASTLQSGVPSRFSGSGSGTDFTLTISSLQPEDFATYYCQQMLRTPFTFGQGTKVEIKR
B13: 1h-87 (other)
VL: DIQMTQSPSSLSASVGDRVTITCRASQSIGKSLAWYQQKPGKAPKLLIYWVSLLQSGVPSRFSGSGSGTDFTLTISSLQPEDFATYYCQQIVSRPFTFGQGTKVEIKR

Molecular target: human CD28 (human, UniProt P10747 19-220)
Assay: cell-based or functional assay

Binder	Luciferase assay (EC50)	MLR assay (EC50)
B1	570 nM	1800 nM
B2	1900 nM	–
B3	400 nM	–
B4	1000 nM	–
B5	1900 nM	2700 nM
B6	1500 nM	–
B7	530 nM	–
B8	62 nM	550 nM
B9	322 nM	–
B10	1300 nM	1700 nM
B11	3300 nM	–
B12	3800 nM	3200 nM
B13	1700 nM	–
